The target in data set [1] is T1, dOVA-1: ovalbumin 5.2 mg/ml in HBS, acidified with HCl, 40 minutes at 37 C, neutralized, P01012.
T1 chain: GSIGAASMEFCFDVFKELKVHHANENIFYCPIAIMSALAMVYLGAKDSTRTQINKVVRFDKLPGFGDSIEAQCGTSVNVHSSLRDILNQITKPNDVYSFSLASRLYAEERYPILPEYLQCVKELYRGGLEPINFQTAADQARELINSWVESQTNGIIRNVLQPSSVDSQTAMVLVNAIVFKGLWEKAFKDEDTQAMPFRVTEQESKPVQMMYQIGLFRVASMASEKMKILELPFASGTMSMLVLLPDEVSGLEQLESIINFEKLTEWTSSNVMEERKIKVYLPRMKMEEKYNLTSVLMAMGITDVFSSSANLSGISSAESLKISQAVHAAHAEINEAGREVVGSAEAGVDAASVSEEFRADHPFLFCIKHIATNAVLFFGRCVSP

For data set [2], the target named is T2, cross-beta nOVA: ovalbumin (chicken egg-white albumin) dissolved at 1 mg/ml in PBS, P01012.
T2 chain: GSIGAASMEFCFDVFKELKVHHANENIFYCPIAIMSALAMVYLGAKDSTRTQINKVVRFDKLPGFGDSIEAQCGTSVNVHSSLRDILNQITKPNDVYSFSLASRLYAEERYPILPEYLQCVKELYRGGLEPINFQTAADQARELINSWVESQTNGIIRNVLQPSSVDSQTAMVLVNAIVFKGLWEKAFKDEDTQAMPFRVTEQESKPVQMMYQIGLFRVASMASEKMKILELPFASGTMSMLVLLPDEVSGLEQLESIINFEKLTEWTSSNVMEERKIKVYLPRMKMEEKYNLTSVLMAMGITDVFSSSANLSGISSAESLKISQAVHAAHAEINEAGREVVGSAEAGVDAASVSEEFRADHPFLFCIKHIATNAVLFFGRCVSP

In data set [3] the target is CH5-1 (nH5 heat-cycled three times 25 to 85 C), H5 of A/Vietnam/1203/04.
Data set [4] concerns the target CH5-4 (nH5 incubated with 100 mM glucose-6-phosphate for 67 h at 80 C), H5 of A/Vietnam/1203/04.
In data set [5] the target is CH5-3 (nH5 heat-cycled at pH 12, back to pH 7), H5 of A/Vietnam/1203/04.
Data set [6] deals with cross-beta factor VIII form 12: Helixate FVIII incubated for 1 week at 37 C, stored at 4 C, P00451.
Sequence of cross-beta factor VIII form 12: Helixate FVIII incubated for 1 week at 37 C, stored at 4 C, P00451 (P00451 whole entry, looked up): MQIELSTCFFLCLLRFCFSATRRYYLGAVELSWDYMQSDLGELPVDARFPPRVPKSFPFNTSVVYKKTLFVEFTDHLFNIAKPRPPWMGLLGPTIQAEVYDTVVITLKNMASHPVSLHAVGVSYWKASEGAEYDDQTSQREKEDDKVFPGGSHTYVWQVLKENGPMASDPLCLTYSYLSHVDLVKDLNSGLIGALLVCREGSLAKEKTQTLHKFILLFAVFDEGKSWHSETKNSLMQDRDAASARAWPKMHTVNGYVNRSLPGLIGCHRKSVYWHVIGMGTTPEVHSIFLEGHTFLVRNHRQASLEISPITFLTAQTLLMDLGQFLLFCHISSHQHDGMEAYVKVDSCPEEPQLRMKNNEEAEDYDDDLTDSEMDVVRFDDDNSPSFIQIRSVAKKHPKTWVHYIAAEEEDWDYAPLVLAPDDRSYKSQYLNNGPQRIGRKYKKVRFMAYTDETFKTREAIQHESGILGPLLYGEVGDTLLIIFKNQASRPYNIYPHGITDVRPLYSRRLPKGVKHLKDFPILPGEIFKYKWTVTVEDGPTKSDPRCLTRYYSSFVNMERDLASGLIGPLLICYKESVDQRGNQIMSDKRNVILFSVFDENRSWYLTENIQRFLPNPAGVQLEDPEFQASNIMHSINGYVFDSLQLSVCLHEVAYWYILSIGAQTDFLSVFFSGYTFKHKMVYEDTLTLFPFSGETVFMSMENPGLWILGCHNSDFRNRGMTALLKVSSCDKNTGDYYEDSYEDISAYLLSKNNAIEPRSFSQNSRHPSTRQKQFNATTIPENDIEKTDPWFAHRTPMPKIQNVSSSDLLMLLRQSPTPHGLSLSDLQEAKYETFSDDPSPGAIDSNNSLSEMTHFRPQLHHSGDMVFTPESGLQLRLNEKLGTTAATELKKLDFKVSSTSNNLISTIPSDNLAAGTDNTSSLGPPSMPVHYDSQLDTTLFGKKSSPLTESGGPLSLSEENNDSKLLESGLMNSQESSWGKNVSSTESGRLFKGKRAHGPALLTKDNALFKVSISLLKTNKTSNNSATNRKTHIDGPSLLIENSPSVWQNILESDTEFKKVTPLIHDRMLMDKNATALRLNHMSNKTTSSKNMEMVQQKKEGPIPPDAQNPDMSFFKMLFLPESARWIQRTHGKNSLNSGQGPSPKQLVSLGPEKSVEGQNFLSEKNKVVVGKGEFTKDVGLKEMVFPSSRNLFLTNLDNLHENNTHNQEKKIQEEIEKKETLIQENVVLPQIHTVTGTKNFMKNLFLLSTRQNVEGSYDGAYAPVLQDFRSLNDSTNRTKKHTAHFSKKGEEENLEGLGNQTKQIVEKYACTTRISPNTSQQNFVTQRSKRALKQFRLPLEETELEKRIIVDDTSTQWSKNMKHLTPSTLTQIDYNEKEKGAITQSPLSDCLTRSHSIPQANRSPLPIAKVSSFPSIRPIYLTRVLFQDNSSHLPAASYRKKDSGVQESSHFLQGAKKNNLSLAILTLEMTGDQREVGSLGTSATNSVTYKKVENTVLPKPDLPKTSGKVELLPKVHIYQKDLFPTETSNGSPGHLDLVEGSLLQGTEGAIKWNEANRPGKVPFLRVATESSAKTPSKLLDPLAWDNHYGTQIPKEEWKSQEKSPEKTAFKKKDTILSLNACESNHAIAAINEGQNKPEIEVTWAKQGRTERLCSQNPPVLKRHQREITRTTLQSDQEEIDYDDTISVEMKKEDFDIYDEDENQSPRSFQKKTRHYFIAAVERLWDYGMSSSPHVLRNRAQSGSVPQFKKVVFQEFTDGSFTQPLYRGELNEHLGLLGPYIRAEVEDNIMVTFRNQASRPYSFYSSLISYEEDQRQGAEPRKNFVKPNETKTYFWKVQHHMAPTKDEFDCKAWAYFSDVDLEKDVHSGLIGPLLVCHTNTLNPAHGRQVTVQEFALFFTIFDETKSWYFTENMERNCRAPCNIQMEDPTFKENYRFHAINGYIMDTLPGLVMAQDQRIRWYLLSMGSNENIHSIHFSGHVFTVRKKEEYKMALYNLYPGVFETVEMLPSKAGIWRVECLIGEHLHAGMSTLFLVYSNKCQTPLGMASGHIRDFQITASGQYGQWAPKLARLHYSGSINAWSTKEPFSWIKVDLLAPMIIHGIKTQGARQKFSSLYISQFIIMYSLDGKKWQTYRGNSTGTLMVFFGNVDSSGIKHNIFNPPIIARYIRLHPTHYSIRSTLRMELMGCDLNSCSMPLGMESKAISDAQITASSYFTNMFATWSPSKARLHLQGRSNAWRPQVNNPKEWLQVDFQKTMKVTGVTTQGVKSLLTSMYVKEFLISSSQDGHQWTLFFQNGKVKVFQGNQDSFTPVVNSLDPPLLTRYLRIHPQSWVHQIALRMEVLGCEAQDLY
Data set [7] addresses CH5-2 (nH5 heat-cycled at pH 2, back to pH 7), H5 of A/Vietnam/1203/04.
Data set [8] concerns the target T3, dOVA-3: ovalbumin 1 mg/ml in PBS, about 16 h at 75 C, P01012.
T3 chain: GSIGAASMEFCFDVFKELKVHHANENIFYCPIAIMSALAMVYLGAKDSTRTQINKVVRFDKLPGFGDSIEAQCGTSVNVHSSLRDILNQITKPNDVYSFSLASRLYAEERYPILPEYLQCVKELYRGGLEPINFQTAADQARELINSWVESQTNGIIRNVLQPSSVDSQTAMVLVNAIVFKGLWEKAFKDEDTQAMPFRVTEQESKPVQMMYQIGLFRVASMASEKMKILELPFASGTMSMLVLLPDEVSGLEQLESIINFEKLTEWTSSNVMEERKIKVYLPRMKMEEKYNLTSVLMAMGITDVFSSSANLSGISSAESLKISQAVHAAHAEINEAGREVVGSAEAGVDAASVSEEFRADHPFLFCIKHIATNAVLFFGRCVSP

Data set [9] addresses cross-beta FVIII-1 (cFVIII-1): Helixate FVIII kept at 4 C for 20 hours, stored at -80 C.
The target in data set [10] is non-treated H5 (nH5) of H5N1 strain A/Vietnam/1203/04 (Protein Sciences).
For data set [11], the target named is T4, dOVA-2: ovalbumin 1 mg/ml in PBS, five heat cycles 30 to 85 C, P01012.
T4 chain: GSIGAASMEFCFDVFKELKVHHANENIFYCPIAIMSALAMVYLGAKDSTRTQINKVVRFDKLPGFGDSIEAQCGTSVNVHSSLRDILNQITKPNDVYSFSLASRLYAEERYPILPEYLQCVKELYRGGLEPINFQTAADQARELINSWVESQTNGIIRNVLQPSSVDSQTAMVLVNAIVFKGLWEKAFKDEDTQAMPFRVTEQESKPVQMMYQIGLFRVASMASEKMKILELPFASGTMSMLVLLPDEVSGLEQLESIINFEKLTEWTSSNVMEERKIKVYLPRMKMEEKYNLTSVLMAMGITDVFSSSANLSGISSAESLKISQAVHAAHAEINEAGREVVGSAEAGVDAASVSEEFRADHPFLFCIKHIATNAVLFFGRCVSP

Data set [12] has as its target cFVIII-5: Helixate FVIII kept at 95 C for 5 minutes.

Sequence of cFVIII-5: Helixate FVIII kept at 95 C for 5 minutes (chain, as listed by the source): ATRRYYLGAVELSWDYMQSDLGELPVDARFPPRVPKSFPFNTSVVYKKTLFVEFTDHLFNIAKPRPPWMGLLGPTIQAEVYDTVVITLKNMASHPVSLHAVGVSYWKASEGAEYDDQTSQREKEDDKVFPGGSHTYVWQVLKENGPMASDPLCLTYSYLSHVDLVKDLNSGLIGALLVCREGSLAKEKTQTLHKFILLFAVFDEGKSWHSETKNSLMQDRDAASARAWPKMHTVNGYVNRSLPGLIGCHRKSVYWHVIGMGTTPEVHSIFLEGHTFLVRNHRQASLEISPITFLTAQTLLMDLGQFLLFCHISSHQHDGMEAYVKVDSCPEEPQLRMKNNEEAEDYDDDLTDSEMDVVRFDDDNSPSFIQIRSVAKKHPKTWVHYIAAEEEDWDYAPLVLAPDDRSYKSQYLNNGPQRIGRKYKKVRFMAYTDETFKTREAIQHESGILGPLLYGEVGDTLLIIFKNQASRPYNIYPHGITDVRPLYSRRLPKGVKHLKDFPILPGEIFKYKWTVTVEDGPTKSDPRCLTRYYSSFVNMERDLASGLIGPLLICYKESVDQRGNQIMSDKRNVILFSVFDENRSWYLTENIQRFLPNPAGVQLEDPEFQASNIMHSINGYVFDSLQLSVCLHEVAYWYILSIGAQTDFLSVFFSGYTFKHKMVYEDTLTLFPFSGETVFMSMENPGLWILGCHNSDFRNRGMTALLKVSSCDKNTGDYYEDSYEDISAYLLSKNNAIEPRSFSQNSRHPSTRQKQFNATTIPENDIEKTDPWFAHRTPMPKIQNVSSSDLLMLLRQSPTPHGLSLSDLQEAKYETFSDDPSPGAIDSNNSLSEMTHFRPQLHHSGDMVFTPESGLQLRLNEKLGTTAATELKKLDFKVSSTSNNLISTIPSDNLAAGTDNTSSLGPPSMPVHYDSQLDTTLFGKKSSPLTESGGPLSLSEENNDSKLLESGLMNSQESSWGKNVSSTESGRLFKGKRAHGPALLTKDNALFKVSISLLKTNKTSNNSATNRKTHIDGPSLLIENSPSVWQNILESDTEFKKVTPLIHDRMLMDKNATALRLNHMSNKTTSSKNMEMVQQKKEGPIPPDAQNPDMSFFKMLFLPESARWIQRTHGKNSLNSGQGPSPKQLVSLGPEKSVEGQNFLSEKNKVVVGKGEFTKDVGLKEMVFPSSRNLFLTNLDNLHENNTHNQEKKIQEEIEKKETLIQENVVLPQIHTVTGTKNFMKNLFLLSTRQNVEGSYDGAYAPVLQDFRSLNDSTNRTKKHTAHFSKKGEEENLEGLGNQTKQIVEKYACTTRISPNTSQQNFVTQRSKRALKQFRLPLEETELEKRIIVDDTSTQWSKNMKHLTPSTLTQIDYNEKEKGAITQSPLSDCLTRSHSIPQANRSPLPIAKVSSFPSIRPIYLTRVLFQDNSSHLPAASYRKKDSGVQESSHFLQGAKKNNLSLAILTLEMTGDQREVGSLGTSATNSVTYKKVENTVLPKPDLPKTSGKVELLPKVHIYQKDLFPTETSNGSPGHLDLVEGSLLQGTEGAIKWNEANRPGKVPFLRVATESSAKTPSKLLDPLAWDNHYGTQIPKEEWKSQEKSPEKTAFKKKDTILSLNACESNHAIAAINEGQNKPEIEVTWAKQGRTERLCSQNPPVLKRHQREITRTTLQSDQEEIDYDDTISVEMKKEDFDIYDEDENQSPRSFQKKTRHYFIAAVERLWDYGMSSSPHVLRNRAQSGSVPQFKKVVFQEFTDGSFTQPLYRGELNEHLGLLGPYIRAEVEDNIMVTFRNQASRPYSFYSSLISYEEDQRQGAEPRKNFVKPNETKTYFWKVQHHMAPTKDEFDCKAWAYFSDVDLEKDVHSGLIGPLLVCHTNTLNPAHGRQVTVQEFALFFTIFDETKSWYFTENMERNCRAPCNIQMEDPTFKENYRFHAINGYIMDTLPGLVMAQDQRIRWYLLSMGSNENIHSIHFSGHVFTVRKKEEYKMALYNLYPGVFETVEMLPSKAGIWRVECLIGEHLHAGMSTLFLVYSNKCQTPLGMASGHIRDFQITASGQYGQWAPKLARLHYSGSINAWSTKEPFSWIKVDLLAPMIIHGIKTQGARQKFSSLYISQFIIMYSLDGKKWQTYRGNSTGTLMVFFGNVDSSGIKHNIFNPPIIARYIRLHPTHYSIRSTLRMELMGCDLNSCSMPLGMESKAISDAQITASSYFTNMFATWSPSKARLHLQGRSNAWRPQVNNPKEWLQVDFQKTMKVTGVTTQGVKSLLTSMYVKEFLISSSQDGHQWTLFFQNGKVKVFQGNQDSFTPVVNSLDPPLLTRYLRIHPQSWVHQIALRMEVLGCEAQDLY

B1: tissue type plasminogen activator (tPA; Actilyse, Boehringer-Ingelheim) (protein)
chain: SYQVICRDEKTQMIYQQHQSWLRPVLRSNRVEYCWCNSGRAQCHSVPVKSCSEPRCFNGGTCQQALYFSDFVCQCPEGFAGKCCEIDTRATCYEDQGISYRGTWSTAESGAECTNWNSSALAQKPYSGRRPDAIRLGLGNHNYCRNPDRDSKPWCYVFKAGKYSSEFCSTPACSEGNSDCYFGNGSAYRGTHSLTESGASCLPWNSMILIGKVYTAQNPSAQALGLGKHNYCRNPDGDAKPWCHVLKNRRLTWEYCDVPSCSTCGLRQYSQPQFRIKGGLFADIASHPWQAAIFAKHRRSPGERFLCGGILISSCWILSAAHCFQERFPPHHLTVILGRTYRVVPGEEEQKFEVEKYIVHKEFDDDTYDNDIALLQLKSDSSRCAQESSVVRTVCLPPADLQLPDWTECELSGYGKHEALSPFYSERLKEAHVRLYPSSRCTSQHLLNRTVTDNMLCAGDTRSGGPQANLHDACQGDSGGPLVCLNDGRMTLVGIISWGLGCGQKDVPGVYTKVTNYLDWIRDNMRP
B1: the tPA activation potency, activation at 10 ug/mL (% of reference) in data set [1] turned out to be 97.4; in [2], 48.8; in [8] it was 60.9; in data set [11] it was 107. The tPA activation potency, activation at 25 ug/mL (% of reference) in data set [1] amounted to 136; in [2], 48.1; in data set [8], 79; in data set [11] it was 107. The “tPA mediated plasminogen activation assay” value is on record as “cH5-1 (50% of standard)” in data set [3]; “cH5-4 (37% of standard)” in data set [4]; “cH5-3 (200% of standard)” in [5]; “cH5-2 (150% of standard)” in data set [7]; “nH5 (140% of standard)” in data set [10]. For the same protein, the “tPA/Plg activation assay, compared to a misfolded ovalbumin standard” value in data set [6] was “cross-beta fVIII forms 1, 12 and 5 is approximately 50, 75 and 125%”; in [9], “cross-beta fVIII forms 1, 12 and 5 is approximately 50, 75 and 125%”; in [12], “cross-beta fVIII forms 1, 12 and 5 is approximately 50, 75 and 125%”. In data set [11], this protein gave a tPA activation potency, reference dOVA-2 at 80 ug/mL (column 10 ug/mL) (% of reference) of 100. In data set [11], the tPA activation potency, reference dOVA-2 at 80 ug/mL (column 25 ug/mL) (% of reference) was determined as 100.

(Values after patent publication US20090142377.)
